In paper PMC1181240:

Target: MMLV RT N-terminal fragment (fingers/palm catalytic fragment) (Moloney murine leukemia virus, UniProt P03355 683-937)
Test: X-ray crystallography

MMLV RT N-terminal fragment (fingers/palm catalytic fragment), sequence (P03355 683-937): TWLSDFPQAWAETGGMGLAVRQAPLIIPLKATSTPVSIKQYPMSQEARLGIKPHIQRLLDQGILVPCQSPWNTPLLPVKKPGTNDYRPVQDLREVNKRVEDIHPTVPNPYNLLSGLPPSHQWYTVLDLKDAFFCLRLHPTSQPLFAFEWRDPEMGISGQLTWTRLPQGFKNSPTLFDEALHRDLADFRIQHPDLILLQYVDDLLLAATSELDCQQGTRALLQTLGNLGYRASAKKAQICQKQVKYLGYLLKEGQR

B1: 16mer d(CTTAATTCGAATTAAG)2 (dsDNA)
DNA 1: CTTAATTCGAATTAAG
DNA 2: CTTAATTCGAATTAAG
binding result: binds
